{"source": "patent US20230031280A1", "about": "“GLP-2 FUSION POLYPEPTIDES AND USES FOR TREATING AND PREVENTING GASTROINTESTINAL CONDITIONS” (SHIRE-NPS PHARMACEUTICALS, INC., priority 2017, published 2023)", "key": {"[1]": {"target": "T1, hFcRn (extracellular domain of the FcRN) (Homo sapiens, UniProt P55899)", "T1 construct": "made in house", "T1 sequence (P55899 24-297 limits assumed)": "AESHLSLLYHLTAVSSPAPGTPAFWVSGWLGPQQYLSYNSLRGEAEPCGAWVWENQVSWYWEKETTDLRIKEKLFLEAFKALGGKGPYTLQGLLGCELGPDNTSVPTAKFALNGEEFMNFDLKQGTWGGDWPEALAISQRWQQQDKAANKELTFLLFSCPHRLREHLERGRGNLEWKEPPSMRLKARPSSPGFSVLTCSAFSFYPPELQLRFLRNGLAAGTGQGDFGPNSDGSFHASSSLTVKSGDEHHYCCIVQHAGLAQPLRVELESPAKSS", "T1 sequence (P61769 21-119 partner)": "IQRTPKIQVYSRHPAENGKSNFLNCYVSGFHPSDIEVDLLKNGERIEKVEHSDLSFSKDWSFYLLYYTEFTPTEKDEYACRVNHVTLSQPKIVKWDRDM", "test": "FcRn binding by surface plasmon resonance (Biacore)", "text": "Binding to the Fc neonatal receptor (FcRN) allows for recycling of the molecules and leads to an extended in vivo serum half-life of the Fc fusion proteins. Recycling occurs as the molecules are passively taken into the cells and the pH of the endosomes is lower. That leads to binding of the Fc portion of the molecule to the FcRN. When the FcRN recycles back to the surface of the cell, the pH is then neutral and the protein is released back into the serum.\nBinding to the extracellular domain of the FcRN was measured by surface plasmon resonance (SPR) using a Biacore system. Direct immobilization with FcRn was achieved via amine coupling of a CM5 chip with FcRn under the following conditions: • i) hFcRn (expressed and purified in house) is diluted in Acetate buffer pH 5.0 to 5 μg/mL. • ii) Immobilize 5 μg/mL of FcRn with target of 500 RU on CM5 chip in PBS pH 7.0 • iii) Final response 454 RU • iv) Running buffer: PBS-P+, pHed to 5.5\nThe kinetic binding study was done using the following protocol. Samples were diluted in PBS-P+ to 50, 25, 12.5, 6.25, 3.125, 1.56, 0.78, 0.39, 0 nM. The parameters were set as follows: • i) Association and Dissociation 300 s at Flow rate 30 μL/min • ii) Regeneration with 25 mM Tris, 150 mM NaCl pH 8.0 40 s at 60 μL/min\nA measurement of the binding of the GLP-2 peptibodies to the Fc neonatal receptor (FcRN) was undertaken at pH 5.5 and pH 7.4."}, "[2]": {"test": "Cynomolgus monkey pharmacokinetic study", "type": "in vivo, cynomolgus monkeys", "settings": "0.75 mg/kg", "protocol": "Pharmacokinetics studies of teduglutide, GLP-2 Peptibody B and GLP-2 Peptibody K were formed in cynomolgus monkeys with citrulline assayed as a biomarker of GLP-2 concentration. In the study, 12.5 nmol/kg teduglutide was administered subcutaneously to a group of 6 male cynomolgus monkeys at day 1. Then for one set of 2 monkeys, 25 nmol/kg GLP-2 Peptibody B was administered intravenously at day 7, day 21, day 28, day 35, and day 42. For another set of 3 monkeys, 25 nmol/kg GLP-2 Peptibody B was administered subcutaneously at day 7, day 21, day 28, day 35, and day 42. For another set of monkeys, 5 nmol/kg GLP-2 Peptibody K was administered intravenously (2 monkeys) and subcutaneously (3 monkeys) at day 7, day 21, day 28, day 35, and day 42. For another set of monkeys, 25 nmol/kg GLP-2 Peptibody K was administered subcutaneously (3 monkeys) and intravenously (2 monkeys) at day 7, day 21, day 28, day 35, and day 42."}, "[3]": {"test": "NanoDSF melting temperature / thermal stability", "type": "physicochemical", "protocol": "Each of the GLP-2 peptibodies was tested by determining melting temperature with nanodifferential scanning fluorimetry (NanoDSF). NanoDSF is a measurement of protein stability over a range of temperatures, with a temperature ramp employed. The stability of tryptophan is measured by fluorescence, as reflected in a ratio of fluorescence at 350 nm to fluorescence at 330 nm. From the assay, one or more melting temperatures are determined. Because a protein in a certain state is understood to have a melting temperature, the number of melting temperatures observed reflects the number of different states.\n(§1) Stability analysis was then performed using SEC-MALS and NanoDSF. For SEC-MALS, a Sepax Zenix C-150 column was used. The mobile phase buffer was 1× PBS with a final concentration of 400 mM NaCl. The flow rate was 0.8 mL per minute. 20 micrograms of total protein was injected. For NanoDSF, 10 microliters of sample was used, without normalization of the samples.\nas §1"}, "[4]": {"test": "Rat pharmacokinetics, intravenous dosing", "type": "in vivo, Sprague-Dawley rats", "settings": "single dose 1 mg/ml", "protocol": "(§2) In the rat, four pharmacokinetic parameters were measured for Gattex® (a GLP-2 peptide having the A2G mutation): CL, Vc, Vt and Q. The same pharmacokinetic parameters were also measured for GLP-2 peptibodies A, B, E, J, K, L, M, O and P. The data is shown in Table 4. Male Sprague-Dawley rats (3 animals per group) were injected intravenously either via a jugular vein or tail vein catheter. A singles dose of test article was injected at a dose level of 1 mg/ml. The test articles were formulated in PBS pH 7.4 at a concentration of Blood samples were taken 0.083, 0.167, 0.33, 0.5, 1, 2, 6, 24, 48, 72, 120, 168, 240, and 336 hours post dose. Blood samples were collected into heparinized tubes and centrifuged for 5 minutes at 2000 xg within 10 minutes of collection. 100 μL of plasma were transferred to a 1.5 ml Eppendorf tube containing 2 μL of 50 mM PMSF. After mixing, the plasma samples were frozen at −80° C. until analysis."}, "[5]": {"test": "Rat pharmacokinetics, subcutaneous dosing", "type": "in vivo, Sprague-Dawley rats", "settings": "single dose 1 mg/ml", "protocol": "as §2, with “5.” for “4.”, “subcutaneously into the intra-scapular region of the animal.” for “intravenously either via a jugular vein or tail vein catheter.”, “[…]” for “1.5”, “mixing” for “mixing,”, “analysis. Meso Scale Discovery (MSD) ELISA was undertaken to assay for the concentration of the GLP-2 peptibodies.” for “analysis.”\nA sandwich immunoassay was developed using either an anti-Human IgG1 Fc antibody or an anti-human albumin antibody for capture of the peptibody and a sulfotag labeled anti GLP-2 antibody for detection."}, "[6]": {"test": "Projection of intravenous and subcutaneous PK parameters for humans", "parameters": "species or system human", "protocol": "While a dose of 30 μg/kg once weekly (QW) is projected from the cynomolgus monkey PK data, the dose should be ten times higher (300 μg/kg) to adjust for the difference in in vivo potency."}, "[7]": {"test": "SEC-MALS (Sepax Zenix C-150) peak distribution", "type": "physicochemical", "protocol": "A SEC-MALS assay was performed to determine the primary state (main peak) and its molecular weight. […] The GLP-2 peptibody O (albumin fusion) eluted at a molecular weight indicative of a monomer.\nas §1, §1"}}, "note": "pKd: −log10 of the molar value."}
{"substance": "GLP-2 peptibody B: GLP-2[A2G]-GGGGG linker-IgG1 Fc (LALA) with C-terminal lysine; SEQ ID NO: 4", "values": [{"measurement": "pKd", "setting": "[1]; pH 5.5", "result": 8.77}, {"measurement": "FcRN KD at pH 7.4", "setting": "[1]; pH 7.4", "result": "No binding in range tested."}, {"measurement": "CL", "setting": "[2]; MDPK, intravenous", "result": 10.0, "unit": "mL/day/kg"}, {"measurement": "Q", "setting": "[2]; MDPK, intravenous", "result": 28.9, "unit": "mL/day/kg"}, {"measurement": "Vc", "setting": "[2]; MDPK, intravenous", "result": 18.7, "unit": "mL/kg"}, {"measurement": "Vt", "setting": "[2]; MDPK, intravenous", "result": 32.9, "unit": "mL/kg"}, {"measurement": "CL/F", "setting": "[2]; MDPK, subcutaneous", "result": 17.7, "unit": "mL/day/kg"}, {"measurement": "Vc", "setting": "[2]; MDPK, subcutaneous", "result": 94.0, "unit": "mL/kg"}, {"measurement": "association constant (ka)", "setting": "[2]; MDPK, subcutaneous", "result": 1.59, "unit": "day⁻¹"}, {"measurement": "CL", "setting": "[2]; SDPK, intravenous", "result": 9.5, "unit": "mL/day/kg"}, {"measurement": "Q", "setting": "[2]; SDPK, intravenous", "result": 26.7, "unit": "mL/day/kg"}, {"measurement": "Vc", "setting": "[2]; SDPK, intravenous", "result": 17.1, "unit": "mL/kg"}, {"measurement": "Vt", "setting": "[2]; SDPK, intravenous", "result": 27.6, "unit": "mL/kg"}, {"measurement": "CL/F", "setting": "[2]; SDPK, subcutaneous", "result": 17.7, "unit": "mL/day/kg"}, {"measurement": "Vc", "setting": "[2]; SDPK, subcutaneous", "result": 92.4, "unit": "mL/kg"}, {"measurement": "association constant (ka)", "setting": "[2]; SDPK, subcutaneous", "result": 1.52, "unit": "day⁻¹"}, {"measurement": "NanoDSF melting temperature 1", "setting": "[3]; first transition", "result": "1 = 67.1 °C"}, {"measurement": "NanoDSF melting temperature 2", "setting": "[3]; second transition", "result": "2 = 79.9 °C"}, {"measurement": "CL", "setting": "[4]", "result": 48, "unit": "mL/day/kg"}, {"measurement": "Q", "setting": "[4]", "result": 58, "unit": "mL/day/kg"}, {"measurement": "Vc", "setting": "[4]", "result": 31, "unit": "mL/kg"}, {"measurement": "Vt", "setting": "[4]", "result": 76, "unit": "mL/kg"}, {"measurement": "CL", "setting": "[5]", "result": 43, "unit": "mL/day/kg"}, {"measurement": "Q", "setting": "[5]", "result": 52, "unit": "mL/day/kg"}, {"measurement": "Vc", "setting": "[5]", "result": 73, "unit": "mL/kg"}, {"measurement": "Vt", "setting": "[5]", "result": 68, "unit": "mL/kg"}, {"measurement": "ka", "setting": "[5]", "result": "B (0.45 ka/day,"}, {"measurement": "Vc", "setting": "[6]", "result": 49.4, "unit": "mL/kg"}, {"measurement": "Vt", "setting": "[6]", "result": 42.5, "unit": "mL/kg"}, {"measurement": "ka", "setting": "[6]", "result": 2.43, "unit": "day⁻¹"}, {"measurement": "CL (value in parentheses)", "setting": "[6]; exponent on CL 0.85, monkey 3.5 kg, human 70 kg", "result": 25.0, "unit": "mL/day/kg"}, {"measurement": "CL", "setting": "[6]; first value of cell", "result": 39.2, "unit": "mL/day/kg"}, {"measurement": "F", "setting": "[6]; first value of cell", "result": 98, "unit": "%"}, {"measurement": "Q", "setting": "[6]; first value of cell", "result": 24.1, "unit": "mL/day/kg"}, {"measurement": "F (value in parentheses)", "setting": "[6]; value in parentheses", "result": 60, "unit": "%"}, {"measurement": "Q (value in parentheses)", "setting": "[6]; value in parentheses", "result": 15.4, "unit": "mL/day/kg"}, {"measurement": "SEC-MALS Zenix C-150 main peak", "setting": "[7]", "result": "85% main peak, 158,800 g/mol"}]}
